Where a chain is given by its changes, count along the chain named. Values belong to the binder of their own block, whether it stands above or below them.
Experiments:
Human CD3eg linker [1] = target: T1, Human CD3eg linker (human); test: SPR Biacore 8K, 25 C; reference xGPC3/DualAE05-xSG1350kSG1349hV11
T1 construct: Single-chain soluble construct; also called recombinant human CD3
T1 chain: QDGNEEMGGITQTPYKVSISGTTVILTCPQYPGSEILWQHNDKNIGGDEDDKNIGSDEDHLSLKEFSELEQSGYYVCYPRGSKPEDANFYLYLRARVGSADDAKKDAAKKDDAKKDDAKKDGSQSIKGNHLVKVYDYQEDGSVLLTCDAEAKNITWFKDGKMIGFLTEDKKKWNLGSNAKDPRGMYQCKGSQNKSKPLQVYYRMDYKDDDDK
Method: (§1) Binding affinity of Dual-Ig antibodies to human CD3 were assessed at 25 degrees C. using Biacore 8K instrument (GE Healthcare). Anti-human Fc (GE Healthcare) was immobilized onto all flow cells of a CM4 sensor chip using amine coupling kit (GE Healthcare). Antibodies were captured onto the anti-Fc sensor surfaces, then recombinant human CD3 or CD137 was injected over the flow cell. All antibodies and analytes were prepared in ACES pH 7.4 containing 20 mM ACES, 150 mM NaCl, 0.05% Tween 20, 0.005% NaN₃. Sensor surface was regenerated each cycle with 3M MgCl₂. […] CD137 binding affinity assay was conducted in same condition except assay temperature was set at 37 degrees C.
This is caused by faster off rate in FAST-Ig construct. […] This is caused by faster off rate in FAST-Ig construct.

Human CD3eg linker [2] = target: T1, Human CD3eg linker; test: SPR Biacore 8K, Ab captured on anti-human Fc, CD3 as analyte, 25 C
Method: as §1

[3] = target: T2, Human CD137 extracellular domain (ECD) (human); test: SPR Biacore 8K, Ab captured on anti-human Fc, CD137 as analyte, 37 C
T2 construct: also called Human CD137 ECD; recombinant human CD137
T2 sequence (chain, as listed by the source limits assumed): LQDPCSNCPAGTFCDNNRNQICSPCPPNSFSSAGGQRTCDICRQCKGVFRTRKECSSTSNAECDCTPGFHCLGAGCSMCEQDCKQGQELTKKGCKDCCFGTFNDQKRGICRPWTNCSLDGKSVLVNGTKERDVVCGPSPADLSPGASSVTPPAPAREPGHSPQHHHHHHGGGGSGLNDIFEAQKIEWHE
Method: as §1

Human CD3eg linker [4] = target: T1, Human CD3eg linker; test: SPR (Biacore T200, 25 degrees C), in-tandem blocking assay; antibody captured on anti-human Fc, 8 µM hCD3eg injected as analyte
Method: (§2) Biacore in-tandem blocking assay was performed to characterize non-simultaneous binding of Dual-Ig Ab for both CD3 and CD137. The assay was performed on Biacore T200 instrument (GE Healthcare) at 25 degrees C. in ACES pH 7.4 buffer containing 20 mM ACES, 150 mM NaCl, 0.05% Tween 20, 0.005% NaN₃. Anti-human Fc (GE Healthcare) was immobilized onto all flow cells of a CM4 sensor chip using amine coupling kit (GE Healthcare). Antibodies were captured onto the anti-Fc sensor surfaces, then 8 micro M CD3 was injected over the flow cell followed by an identical injection of 8 micro M CD137 in the presence of 8 micro M CD3. An increased of binding response for second injection was indicative of binding to different paratopes therefore a simultaneous binding interactions; whereas no enhancement or decreased of binding response for the 2nd injection was indicative of binding to the same or overlapping or adjacent paratopes, therefore a non-simultaneous binding interactions.

[5] = target: T2, Human CD137 extracellular domain (ECD); test: SPR (Biacore T200, 25 degrees C), in-tandem blocking assay; antibody captured on anti-human Fc, first saturated with 8 µM hCD3eg, then 8 µM hCD137 injected in the presence of 8 µM hCD3eg
Method: as §2

fold weaker binding affinity than CrossMab xSG1350 (Human CD3eg linker [1]): ~3 fold | Kd (Human CD3eg linker [2]): 0.806 µM | koff (Human CD3eg linker [2]): 0.0611 s⁻¹ | kon (Human CD3eg linker [2]): 75900 M⁻¹ s⁻¹ | Kd [3]: 0.038 µM | koff [3]: 0.000506 s⁻¹ | kon [3]: 13300 M⁻¹ s⁻¹
B1: GPC3KE/DualAE05EK-SG1363k1365hV11 (bispecific antibody, V domains shown)
VH 1: QVQLVQSGAEVKKPGASVTVSCKASGYTFTDYEMHWIRKPPGEGLEWIGAIDGPTPDTAYSEKFKGRVTLTADKSTSTAYMELSSLTSEDTAVYYCTRFYSYTYWGQGTLVTVSS
VL 1: DIVMTQSPLSLPVTPGEPASISCRSSQPLVHSNRNTYLHWYQEKPGQAPRLLIYKVSNRFSGVPDRFSGSGSGTDFTLKISRVEAEDVGVYYCGQGTQVPYTFGQGTKLEIK
VH 2: QVQLVESGGGLVQPGRSLRLSCAASGFKFSNVWFHWVREAPGKGLEWVAQIKDYYNAYAAYYAPSVKGRFTISRDDSKNSIYLQMNSLKTEDTAVYYCHYVHYASASTLLPAEGVDAWGQGTTVTVSS
VL 2: DIVMTQSPLSLPVTPGEPASISCQPSQEVVHMNRNTYLHWYQKKPGQAPRLLIYKVSNRFPGVPDRFSGSGSGTDFTLKISRVEAEDVGVYYCAQGTSHPFTFGQGTKLEIK
notes: 1+1 tri-specific, FAST-Ig format; Full chains not tied by name

binding result (Human CD3eg linker [4]): binds | binding result [5]: binds
B2: xGPC3/DualAE15-xSG1350k1349hV11 (bispecific antibody, V domains shown)
VH 1: B1 VH 1 with K39Q
VL 1: B1 VL 1 with E43Q
VH 2: B1 VH 2 with E39Q, A60G, A63H, S105A, T108Q
VL 2: B1 VL 2 with K43Q
notes: 1+1 tri-specific, CrossMab format; Full chains not tied by name; also called xGPC3DualAE15-xSG1350kSG1349hV11; xGPC3/DualAE15-xSG1350kSG1349hV11

Reference: patent US20230147840A1 (Chugai, published 2023)
